Measurements published in the supplement of paper PMC10126150.
± gives the standard deviation of the averaged measurements.

System: ATP
Experiment: switch fluorescence ratio, 500 uM ATP over buffer (Cy3 cluster intensity, sum of 5 cycles each) (fold (ratio)); higher = stronger signal-on switching upon ATP binding; sequences stand for … in TCGTCGGCAGCGTCAGATGTGTATAAGAGACAGTTTTTTTTTTTTTTTTTTTTTTTTT…TC
Settings: aptamer strand: ATP DNA aptamer (quencher-CACCTGGGGGAGTATTGCGGAGGAAGG + anchor), 100 nM annealed; ATP concentration: 500 uM
Procedure, shortened: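 Switching-strand clusters labelled with Cy3 on a modified Illumina MiSeq flow-cell were annealed to 100 nM quencher-labelled ATP aptamer, imaged in selection buffer, and re-imaged after 15 min with 500 uM ATP at 22 °C. This was done over five cycles with NaOH stripping and re-annealing in between. The fluorescence ratio is summed target-cycle over summed buffer-cycle Cy3 intensity per cluster, averaged per switch-domain sequence, excluding clusters outside 100-1000 RFU.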
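Also: ATP exposure 15 min at 22 °C before imaging.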

Row | Sequence | switch fluorescence ratio
1 | GGGAAGATTG | 0.966 ± 0.052
2 | GGGAAGCCTT | 1.028 ± 0.0069
3 | GGGAAGGAGT | 0.992 ± 0.043
4 | GGGAAGGCAT | 0.986 ± 0.047
5 | GGGAAGGCGT | 1.12 ± 0.14
6 | GGGAAGGGAT | 0.981 ± 0.031
7 | GGGAAGGGCA | 1.01 ± 0.049
8 | GGGAAGGTAG | 0.995 ± 0.058
9 | GGGAAGGTGG | 1.04 ± 0.02
10 | GGGAAGTCCG | 0.974 ± 0.03
11 | GGGAATACTT | 1 ± 0.038
12 | GGGAATCTTC | 1.01 ± 0.034
13 | GGGACAATAT | 1.02 ± 0.044
14 | GGGACAGACC | 1.09 ± 0.024
15 | GGGACATAGT | 0.9616 ± 0.0037
16 | GGGACATTGT | 0.963 ± 0.03
17 | GGGACCAGGG | 0.989 ± 0.027
18 | GGGACCATAT | 1.03 ± 0.015
19 | GGGACCGTAT | 1 ± 0.023
20 | GGGACCTTTG | 0.994 ± 0.01
21 | GGGACGAATC | 1.006 ± 0.0041
22 | GGGACGATGG | 0.9857 ± 0.0013
23 | GGGACGCAGG | 1.015 ± 0.008
24 | GGGACGGGGG | 1.06 ± 0.16
25 | GGGACGGGGT | 0.963 ± 0.063

Row | Sequence | switch fluorescence ratio
26 | GGGACGGGTT | 0.974 ± 0.029
27 | GGGACGTGTT | 1.02 ± 0.028
28 | GGGACTTATG | 1 ± 0.013
29 | GGGACTTCAA | 1 ± 0.039
30 | GGGACTTGGG | 0.998 ± 0.037
31 | GGGAGAATGC | 0.939 ± 0.097
32 | GGGAGACAGA | 0.957 ± 0.074
33 | GGGAGACTCG | 0.96678 ± 0.00026
34 | GGGAGCAAAG | 1.04 ± 0.026
35 | GGGAGCCCCA | 1.04 ± 0.039
36 | GGGAGCGCCG | 1.03 ± 0.039
37 | GGGAGCTGCG | 1 ± 0.018
38 | GGGAGCTGTT | 1.06 ± 0.11
39 | GGGAGCTTTT | 0.999 ± 0.023
40 | GGGAGGAGGG | 0.976 ± 0.035
41 | GGGAGGCCGG | 1 ± 0.036
42 | GGGAGGCGAG | 1.016 ± 0.0011
43 | GGGAGGGGGA | 1.01 ± 0.035
44 | GGGAGGGGGT | 1 ± 0.035
45 | GGGAGGGGTA | 1 ± 0.029
46 | GGGAGGGTTA | 0.996 ± 0.055
47 | GGGAGGGTTC | 1.01 ± 0.083
48 | GGGAGTAGCA | 1.02 ± 0.026
49 | GGGAGTATGG | 0.977 ± 0.027
50 | GGGAGTGGTG | 1.12 ± 0.17

Row | Sequence | switch fluorescence ratio
51 | GGGAGTGTCA | 0.981 ± 0.0045
52 | GGGAGTGTGT | 0.986 ± 0.039
53 | GGGAGTGTTT | 1 ± 0.026
54 | GGGAGTTAGA | 0.9885 ± 0.0063
55 | GGGAGTTAGG | 0.9609 ± 0.0049
56 | GGGAGTTTAG | 0.994 ± 0.016
57 | GGGATACCCT | 0.9798 ± 0.00069
58 | GGGATAGGGA | 1.01 ± 0.045
59 | GGGATAGTGG | 0.979 ± 0.03
60 | GGGATATCTG | 0.98847 ± 0.00072
61 | GGGATATGTA | 1.01 ± 0.041
62 | GGGATCCCTT | 1.03 ± 0.05
63 | GGGATCCTTG | 1 ± 0.022
64 | GGGATGACCT | 1.1 ± 0.044
65 | GGGATGCGTG | 0.991 ± 0.043
66 | GGGATGGATC | 0.9929 ± 0.0011
67 | GGGATGGGCA | 1.01 ± 0.055
68 | GGGATTAAAG | 1.02 ± 0.017
69 | GGGATTGATC | 1.02 ± 0.021
70 | GGGATTGGAT | 0.967 ± 0.037
71 | GGGATTGGGA | 0.99 ± 0.045
72 | GGGATTTGGC | 0.995 ± 0.036
73 | GGGCAAAATG | 0.981 ± 0.036
74 | GGGCAAACAG | 0.959 ± 0.029
75 | GGGCAAACGA | 1.12 ± 0.025

Row | Sequence | switch fluorescence ratio
76 | GGGCAAATGA | 0.9764 ± 0.0041
77 | GGGCAAGACA | 1.23 ± 0.018
78 | GGGCAAGCTG | 1.04 ± 0.1
79 | GGGCAAGGGT | 0.977 ± 0.029
80 | GGGCAATCTT | 1.119 ± 0.0083
81 | GGGCAATTGG | 0.992 ± 0.0056
82 | GGGCACTCTT | 1 ± 0.011
83 | GGGCACTTGT | 1.01 ± 0.04
84 | GGGCAGGCGA | 1.011 ± 0.0077
85 | GGGCAGGTGG | 1.08 ± 0.065
86 | GGGCATAGG | 1.008 ± 0.0014
87 | GGGCATGGAA | 0.969 ± 0.018
88 | GGGCCAAGTA | 0.983 ± 0.033
89 | GGGCCACTCG | 0.9716 ± 0.0096
90 | GGGCCCAGCT | 1.02 ± 0.031
91 | GGGCCGAATG | 1.009 ± 0.0025
92 | GGGCCTGAGG | 0.969 ± 0.028
93 | GGGCCTTTTC | 1 ± 0.056
94 | GGGCGACACG | 1 ± 0.06
95 | GGGCGACTGT | 0.978 ± 0.023
96 | GGGCGATGTT | 0.984 ± 0.04
97 | GGGCGCAGCG | 0.978 ± 0.031
98 | GGGCGCAGGG | 1.01 ± 0.01
99 | GGGCGCCTAA | 1 ± 0.046
100 | GGGCGCCTGC | 0.9942 ± 0.0065
